The values below come from patent publication US20060286609A1 (BIOCHECK, published 2006).

One experiment addresses T1, Mouse Id2: Histidine (mouse, UniProt P41136 1-134, limits assumed).
T1 construct: E. coli fusion protein (vector pGW07); also called m-Id2: His; not shown: His-tag
T1 sequence (looked up): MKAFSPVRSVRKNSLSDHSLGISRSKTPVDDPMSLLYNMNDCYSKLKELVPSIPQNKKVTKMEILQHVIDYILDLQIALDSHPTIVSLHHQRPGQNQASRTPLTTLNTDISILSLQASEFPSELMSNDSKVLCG
Kind of experiment: ELISA, coated antigen; relative to human Id1.

The target in another experiment is T2, Mouse Id4: Histidine (mouse, UniProt P41139 1-161, limits assumed).
T2 construct: E. coli fusion protein (vector pGW07); also called m-Id4: His; not shown: His-tag
T2 sequence (looked up): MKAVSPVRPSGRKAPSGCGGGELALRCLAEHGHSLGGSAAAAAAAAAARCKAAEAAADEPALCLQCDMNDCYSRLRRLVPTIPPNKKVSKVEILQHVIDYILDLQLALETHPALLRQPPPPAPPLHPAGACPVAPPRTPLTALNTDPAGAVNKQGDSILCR
In words: ELISA, coated antigen; relative to human Id1.

For the next experiment, the target named is T3, Human Id4: Histidine (human, UniProt P47928 1-161, limits assumed).
T3 construct: E. coli fusion protein (vector pGW07); also called h-Id4: His; not shown: His-tag
T3 sequence (looked up): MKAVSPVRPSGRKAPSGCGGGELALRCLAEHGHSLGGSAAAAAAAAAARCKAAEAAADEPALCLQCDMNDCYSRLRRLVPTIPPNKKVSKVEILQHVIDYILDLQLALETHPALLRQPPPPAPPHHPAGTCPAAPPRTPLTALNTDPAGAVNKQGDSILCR
In words: ELISA, coated antigen; relative to human Id1.

For the next experiment, the target named is T4, Mouse Id3: Histidine (mouse, UniProt P41133 1-119, limits assumed).
T4 construct: E. coli fusion protein (vector pGW07); also called m-Id3: His; not shown: His-tag
T4 sequence (looked up): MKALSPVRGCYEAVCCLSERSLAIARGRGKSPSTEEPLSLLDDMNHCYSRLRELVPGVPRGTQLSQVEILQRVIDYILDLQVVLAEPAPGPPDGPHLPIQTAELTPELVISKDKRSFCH
Kind of experiment: ELISA, coated antigen; relative to human Id1.

The target of experiment [1] is T5, Human Id2: Histidine (human, UniProt Q02363 1-134, limits assumed).
T5 construct: E. coli fusion protein (vector pGW07); also called h-Id2: His; not shown: His-tag
T5 sequence (looked up): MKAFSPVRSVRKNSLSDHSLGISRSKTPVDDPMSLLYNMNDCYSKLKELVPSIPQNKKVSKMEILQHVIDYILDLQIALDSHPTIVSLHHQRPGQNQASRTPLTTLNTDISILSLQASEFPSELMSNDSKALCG
In words: ELISA, coated antigen; relative to human Id1.

Experiment [2] addresses Human Id1: Histidine (human) (UniProt P41134). In words: ELISA, coated antigen, Ab 10.0 ug/ml.
The target in experiment [3] is T6, glutathione S-transferase (GST) (UniProt P08515 1-218 = GST).
T6 construct: Coated on wells as control for the fusion partner of the immunogen
In words: ELISA, coated antigen, Ab up to 10.0 ug/ml. The method, boiled down: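 Wells were coated with glutathione S-transferase and handled by an ELISA protocol. Coating buffers were 0.2 M sodium phosphate pH 6.5 and 10 mM potassium phosphate pH 7.4, with BSA/sodium azide and sucrose solutions. Antibodies were applied up to 10.0 ug/ml. Bound rabbit antibody was detected with goat anti-rabbit IgG-HRP conjugate and bound mouse antibody with goat anti-mouse IgG-HRP conjugate.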

The target in the next experiment is T7, Human Id3: Histidine (human, UniProt Q02535 1-119, limits assumed).
T7 construct: E. coli fusion protein (vector pGW07); also called h-Id3: His; not shown: His-tag
T7 sequence (looked up): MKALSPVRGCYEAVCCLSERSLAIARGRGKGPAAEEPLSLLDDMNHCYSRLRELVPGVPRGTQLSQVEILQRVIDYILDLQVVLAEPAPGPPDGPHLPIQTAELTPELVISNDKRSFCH
In words: ELISA, coated antigen, Ab 2.50 ug/ml. How it is done:
(§1) Incubate plates at 2-8° C. overnight (16-24 hours). [0145] 11. Shake off the BSA solution. [0146] 12. Dispense 250 μL of 2.5% sucrose solution into each well. [0147] 13. Incubate plates at 2-8° C. for 4 hours. [0148] 14. Shake off sucrose solution. [0149] 15. Dry in vacuum at room temperature overnight. Screening Method [0150] 1. Dispense 100 μL of antibody diluent, diluted rabbit polyclonal anti-Id1 into appropriate wells. […] 2. Incubate at room temperature with mechanical shaking at 750 rpm for 90 minutes. [0152] 3. Remove the incubation mixture by flicking plate content into an appropriate waste container, followed by rinsing the wells 5 times with distilled water. […] 4. Strike the wells sharply onto absorbent paper or paper towels to remove all residual water droplets. [0154] 5. Dispense 100 μL of Goat Anti-Rabbit IgG-HRP Conjugate Reagent into each well. Gently mix for 5 seconds. [0155] 6. Incubate at room temperature with mechanical shaking at 750 rpm for 90 minutes. […] 7. Repeat procedures 3 and 4. [0157] 8. Dispense 100 μL of TMB Reagent into each well. Gently mix for 5 seconds. [0158] 9. Incubate at room temperature with mechanical shaking at 750 rpm for 20 minutes. [0159] 10. Add 100 μL of Stop Solution (1N HCl) into each well. [0160] 11. Gently mix for 10 seconds to ensure a complete mixing. […] 12. Read optical density (absorbance) at 450 nm. Results from this assay were used to select the rabbit sera with the highest antibodies titer that selectively reacts with mouse Id1 or human Id1 or both.
(§2) A comparison was carried out between the reactivity of the rabbit monoclonal anti-mouse Id1, clone #BCH-1/#37-2, of this invention and the mouse monoclonal anti-mouse/human Id1 from BD Pharmingen with the following antigens prepared in Example 5: mouse Id1:His, human Id1:His, human Id2:His, human Id3:His, and GST. These antigens and protein were used to coat the wells.
(§3) Materials and methods were those described in Example 9 except (a) Pharmingen's mouse monoclonal anti-mouse Id1 was used in addition to the rabbit monoclonal anti-mouse Id1 (Example 10), and (b) goat anti-mouse IgG-HRP conjugate was used to process the wells treated with the Pharmingen monoclonal antibody and polyclonal goat anti-rabbit IgG-HRP conjugate was used to process wells treated with rabbit monoclonal anti-mouse Id1.

For experiment [4], the target named is T5, Human Id2: Histidine. In words: ELISA, coated antigen, Ab 2.50 ug/ml. How it is done: as §1, §2, §3

T6 sequence (P08515 whole entry, the tested form may be a part): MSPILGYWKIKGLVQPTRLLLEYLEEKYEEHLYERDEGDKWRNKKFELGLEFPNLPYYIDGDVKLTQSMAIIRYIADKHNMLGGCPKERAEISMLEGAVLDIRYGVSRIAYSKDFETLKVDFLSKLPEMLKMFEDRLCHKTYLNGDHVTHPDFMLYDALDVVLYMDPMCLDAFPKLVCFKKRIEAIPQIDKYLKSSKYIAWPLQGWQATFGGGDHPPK
Human Id1: Histidine (human), sequence (P41134 whole entry): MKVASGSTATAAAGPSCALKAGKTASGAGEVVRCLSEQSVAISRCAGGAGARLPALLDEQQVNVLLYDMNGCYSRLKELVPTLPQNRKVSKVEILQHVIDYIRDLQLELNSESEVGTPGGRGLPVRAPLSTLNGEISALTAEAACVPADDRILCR

For the molecule “rabbit monoclonal anti-human Id1, clone #BCH-2/#5-3 (antibody)”, the Cross-reactivity (%) with Mouse Id2: Histidine, with Mouse Id4: Histidine, with Human Id4: Histidine, in the experiment with Mouse Id3: Histidine and with Human Id2: Histidine [1] was less than 1% each time.

B1: rabbit monoclonal anti-mouse Id1, clone #BCH-1/#37-2 (antibody, V domains shown)
VH: QSVEESGGRLVTPGTPLTLTCKVSGFDINSYAMDWFRQAPGKGLEWIGMMSTRGNTYYTSWAKGRFTISKTSSTTVDLKMTSLTTEDTATYFCARGGLWGPGTLVTVSS
VL: RVLTQTASPVSAAVGGTVTINCQASQSVYNGNRLGWYQLKPGQSPKELIHDASTLASGVPSRFRGSGSGTQFTLTINDVQCDDAATYYCVGSYACSTGDCNVFGGGTEVVVK
notes: Rabbit IgG from hybridoma, Protein G purified; also called m Id1 MoAb 37-2; Rabbit Monoclonal Anti-Mouse Id1 (#37-2)
On to B1, for which the A450 in experiment [2] is 0.194 A450; in the experiment with Human Id3: Histidine, 0.069 A450; with Human Id2: Histidine [4], 0.07 A450. The binding result in [3] was “no binding”.
